From FireProtDB (doi:10.1016/j.bpc.2007.12.006)
Where “and” joins values, the source holds several entries; their conditions need not be identical. Identical values can stand only once.

B1: Alpha-lactalbumin wild type, P00711 (protein)
chain: MMSFVSLLLVGILFHATQAEQLTKCEVFRELKDLKGYGGVSLPEWVCTTFHTSGYDTQAIVQNNDSTEYGLFQINNKIWCKDDQNPHSSNICNISCDKFLDDDLTDDIMCVKKILDKVGINYWLAHKALCSEKLDQWLCEKL
B2: Guanyl-specific ribonuclease T1 wild type, P00651 (protein)
chain: MMYSKLLTLTTLLLPTALALPSLVERACDYTCGSNCYSSSDVSTAQAAGYQLHEDGETVGSNSYPHKYNNYEGFDFSVSSPYYEWPILSSGDVYSGGSPGADRVVFNENNQLAGVITHTGASGNNFVECT

Details: CD, reversible: Yes, whole UniProt chain shown; for unfolding free energy: 25 °C; for heat capacity change of unfolding: Thermal

Row | Protein | unfolding free energy (Bos taurus, pH 7, GdnHCl, Cacodylic acid 0.05 M, NaCl 0.1 M) [kcal/mol] | unfolding free energy (Bos taurus, pH 7, Urea, Cacodylic acid 0.05 M, NaCl 0.1 M) [kcal/mol] | heat capacity change of unfolding (Bos taurus, pH 7, Cacodylic acid 0.05 M, NaCl 0.1 M) | unfolding free energy (Aspergillus oryzae (strain ATCC 42149 / RIB 40), pH 2.2, GdnHCl, Glycine-HCl 0.1 M, KCl 0.1 M) [kcal/mol] | unfolding free energy (Aspergillus oryzae (strain ATCC 42149 / RIB 40), pH 2.2, Urea, Glycine-HCl 0.1 M, KCl 0.1 M) [kcal/mol] | heat capacity change of unfolding (Aspergillus oryzae (strain ATCC 42149 / RIB 40), pH 2.2, Glycine-HCl 0.1 M, KCl 0.1 M)
1 | B1 | 2.41 | 2.35 | 2.15 kcal/mol/K and 2 kcal/mol/K | – | – | –
2 | B2 | – | – | – | 2.72 | 2.77 | 2.5 kcal/mol/K and 2.65 kcal/mol/K
